# The DeepSol protein solubility set
# Assay: soluble on expression in E. coli; label from the status in PepcDB or PDB records
row,Sequence,soluble on expression in E. coli
1,ARPKGIRIGYLPQVMRLQDGHTVYEEVEQAFNDIRQIEEEIRRLSDEMAGRTDYESDDYIRLIEHYTNMSETLSLMQQGNYHAAIEQTLIGLGFGREDFHRPTADFSGGWRMRIELAKLLLQRPEVLLLDEPTNHLDIESIGWLEQFIATNAGAVILVSHDRAFIDNTTTRTIEIELGHIYDYKTNYSHYVELREERLRQQMRAYENQQKMIRDTEDFIERFRYKATKSVQVQSRIKQLEKVERVEIDERDRSAFHFRFIPAQPSGSYP,not soluble
2,ASGFAGHLSVGFSPVVGPVVLPESIRRFRAAYPDVLVSVIEASIDLLLPGLRNGDFDIVVGRLEEVAMPEDVRCETLYDEPVCLVAGRAHPLAGRRRISWEDAQAYPWISPQQGTPLRMRLEMELAVAGQPLPRHAVESTSVQTNVALLDRS,not soluble
3,ASGRRAPRTGLLELRCGAGSGAGGERWQRVLLSLAEDALTVSPADGEPGPEPEPAQLNGAAEPGAAPPQLPEALLLQREVSPYFKNSAGGTSVGWDSPPASPLQRQPSSPGPQPRNLSEAKHVSLKMAYVSRRCTPTDPEPRYLEICAADGQDAVFLRAKDEASARSWAGAIQAQIGT,soluble
4,ASHSRKFLDVRSEEELLSCIKKETEAGKLPPNVAAGMEELYQNYRNAVIESGNPKADEIVLSNMTVALDRILLDVEDPFVFSSHHKAIREPFDYYIFGQNYIRPLIDFGNSFVGNLSLFKDIEEKLQQGHNVVLISNHQTEADPAIISLLLEKTNPYIAENTIFVAGDRVLADPLCKPFSIGRNLICVYSKKHMFDIPELTETKRKANTRSLKEMALLLRGGSQLIWIAPSGGRDRPDPSTGEWYPAPFDASSVDNMRRLIQHSDVPGHLFPLALLCHDIMPPPSQVEIEIGEKRVIAFNGAGLSVAPEISFEEIAATHKNPEEVREAYSKALFDSVAMQYNVLKTAISGKQGLGASTADVSLSQPW,soluble
5,ASNSQLNAMAHQIQEMFPQVPYHLVLQDLQLTRSVEITTDNILEGRIQVPF,soluble
6,ATEPFMKGRVKLLPDILPGKNKDHEFEALVSTIQDMSLKMMELMVERPPRELILSMRRNKNPMYQINFASANISTSIAVKQELLEISKMKDRGYRLLYLLHKELQVMELKASIQMKTREEMDKQQKEYFLQQQIKTIQEELGGNINDIEVQELRTKAATMKWSSEVAETFEKELRKLERLHPQSPDYSVQMQYVQTIISLPWGVFSKDNFNLKRAQSVLDRDHFGLEKVKERIIEHLAVLKMKGDMKSPIICLYGPPGVGKTSLGKSIAESLGRKYVRISLGGLHDEAEIRGHRRTYIGAMCGRIIQSLQRAGTSNPVFVLDEIDKIDSDYKGDPSSALLEVLDPEQNNAFHDNYLDIDFDLSHVLFIATANSLSSISRPLLDRMELIDV,not soluble
7,ATFIEQQVGGNLTEASLALRLPTLLPYNGVLFLGNSLLVRLVDALTQLPESYPVYTNRGASGIDGLLATAAGIGIGSNKPVVAVIGDTSTLYDLNSFALFKNVTQPTLIFVINNNGGAIFDMLPVDEQVKDQFYRLPHNGDFSQIAAMFDLKYAHPYTWADLNSVVKQAYSRRKATLIEIKTNPSDG,not soluble
8,ATPAPAAEMPGITIISASQTGNARRVAEALRDDLLAAKLNVKLVNAGDYKFKQIASEKLLIVVTSTQGEGEPPEEAVALHKFLFSKKAPKLENTAFAVFSLGDTSYEFFCQSGKDFDSKLAELGGERLLDRVDADVEYQAAASEWRARVVDALKSRAPVAAPSQSVA,soluble
9,AVEPKEDTITVTAAPAPQESAWGPAATIAARQSATGTKTDTPIQKVPQSISVVTAEEMALHQPKSVKEALSYTPGVSVGTRGASNTYDHLIIRGFAAEGQSQNNYLNGLKLQGNFYNDAVIDPYMLERAEIMRGPVSVLYGKSSPGGLLNMVSKRPTTEPLKEVQFKAGTDSLFQTGFDFSDSLDDDGVYSYRLTGLARSANAQQKGSEEQRYAIAPAFTWRPDDKTNFTFLSYFQNEPETGYYGWLPKEGTVEPLPNGKRLPTDFNEGAKNNTYSRNEKMVGYSFDHEFNDTFTVRQNLRFAENKTSQNSVYGYGVCSDPANAYSKQCAALAPADKGHYLARKYVVDDEKLQNFSVDTQLQSKFATGDIDHTLLTGVDFMRMRNDINAWFGYDDSVPLLNLYNPSSHHHHHHGSSVNTDFDFNAKDPANSGPYRILNKQKQTGVYVQDQAQWDKVLVTLGGRYDWADQESLNRVAGTTDKRDDKQFTWRGGVNYLFDNGVTPYFSYSESFEPSSQVGKDGNIFAPSKGKQYEVGVKYVPEDRPIVVTGAVYNLTKTNNLMADPEGSFFSVEGGEIRARGVEIEAKAALSASVNVVGSYTYTDAEYTTDTTYKGNTPAQVPKHMASLWADYTFFDGPLSGLTLGTGGRYTGSSYGDPANSFKVGSYTVVDALVRYDLARVGMAGSNVALHVNNLFDREYVASCFNTYGCFWGAERQVVATATFRF,soluble
10,AVMHYTSDTEFCVSCHSMEIPYKEYQGSVHFSNAKGIRAECSDCHIPQEPMDYLITKIRASKDIYHEFVTGKIDTPEKYEAHRKDMAETVWAQFRENDSATCRSCHDFDAMEEFEQSRDAAKMHEYAKANDQTCIDCHKGVAHFAPEAELDSKAFETLMSFTTKTAANAKVVYPVTTINMGEMGTINPTTKLEVMSAEGDNRTVKLNAFQMKGAEQVLYMGEGQRAIVATLTEQGQQALEAGEFEADVYGNEWRAVSLTGAIDSPVVDTLDPVWSYAEELDNVYCATCHAKIPSNHFTV,not soluble
11,AWQARGLGTARLQLVEFSAFVEPPDAVDSYQRHLFVHISQHCPSPGAPPLESVDVRQIYDKFPEKKGGLRELYDRGPPHAFFLVKFWADLNWGPSGEEAGAGGSISSGGFYGVSSQYESLEHMTLTCSSKVCSFGKQVVEKVETERAQLEDGRFVYRLLRSPMCEYLVNFLHKLRQLPERYMMNSVLENFTILQVVTNRDTQELLLCTAYVFEVSTSERGAQHHIYRLVRD,soluble
12,CDKSANPKQPTQGMSVVTSFYPMYAMTKEVSGDLNDVRMIQSGAGIHSFEPSVNDVAAIYDADLFVYHSHTLEAWARDLDPNLKKSKVNVFEASKPLTLDRVKGLEDMEVTQGIDPATLYDPHTWTDPVLAGEEAVNIAKELGHLDPKHKDSYTKKAKAFKKEAEQLTEEYTQKFKKVRSKTFVTQHTAFSYLAKRFGLKQLGISGISPEQEPSPRQLKEIQDFVKEYNVKTIFAEDNVNPKIAHAIAKSTGAKVKTLSPLEAAPSGNKTYLENLRANLEVLYQQLK,soluble
13,CHETTTVALPESIGVGKGTTTLEDFENADAIFIIGQNPGSNSPRMMSELHAAAKRGASIISFNPLREKALVRFASPQDPRDMLSLHGVEISSQYHQVRIGGDMIALQGVCKAVIEADDVARREHLPRVLDVAFIEEHTHGFEQYADYCRQLPWDLIESHSGLTRQAIEDVAAVYRRSERVICCWGMGVTQHKRGGDAVQQIINLLLLRGNIGKLGAGACPVRGHSNVQGDRTMGIYEKAGEPFLASMSKVFGFEA,not soluble
14,CKYEGDAQKRLAIRPFPAEFVETVTLRDGQPILLRPILPEDEPLHAQFINSVSKEDLYKRFFSEVGEFNHEALANFTQIDYDREMAFVAVAFDKSGPSIIGVARALITPDNSDAEFAILVRSDLKGKGLGKILMEKIISYCKIKGTKQMSGMTMPTNRGMLMLAQRLGFEVDVQFADGTADMVLPLN,not soluble
15,CLTRISRPWLVTSCIWNKQLIRRAVVWLCGLTGKPILKLTNKDYTENGLGELLAKYGSAYEVNIKLFNDIQHTITGWPGGKPNADDSSRPERALPYPKRVVIFSPHPDDDVISMGGTFHKLVNQGHDVHVAYQTSGNIAVGDEEVIRYVSYLRNVCRQYGHESSPILAKAEEVRHYLMHKKIEGDPEQEDIRFMKGTIRREEARTACRYLGLPEDHVHFLDLPFYETGLIRKNPLGEEDVRIIMALLEEIQPHRIFVAGDLADPHGTHRICLNAVLAAIDELKEESWFKEDCRVWMYRGAWAEWEIDYIEMAVPMSPDELRFKRNSILKHQSQMESAPFLGDDERLFWQRAEDRNRQTATLYEKLGLASYEAIEAFVQYRPVE,not soluble
16,DATWLPPSRWDDGIPGLMLDYNLNGTVSRNYQGGDSHQFSYNGTVGGNLGPWRLRADYQGSQEQSRYNGEKTTNRNFTWSRFYLFRAIPRWRANLTLGENNINSDIFRSWSYTGASLESDDRMLPPRLRGYAPQITGIAETNARVVVSQQGRVLYDSMVPAGPFSIQDLDSSVRGRLDVEVIEQNGRKKTFQVDTASVPYLTRPGQVRYKLVSGRSRGYGHETEGPVFATGEASWGLSNQWSLYGGAVLAGDYNALAAGAGWDLGVPGTLSADITQSVARIEGERTFQGKSWRLSYSKRFDNADADITFAGYRFSERNYMTMEQYLNARYRNDYSSREKEMYTVTLNKNVADWNTSFNLQYSRQTYWDIRKTDYYTVSVNRYFNVFGLQGVAVGLSASRSKYLGRDNDSAYLRISVPLGTGTASYSGSMSNDRYVNMAGYTDTFNDGLDSYSLNAGLNSGGGLTSQRQINAYYSHRSPLANLSANIASLQKGYTSFGVSASGGATITGKGALVPR,soluble
17,DCSPLSLLFGHSDAVVQALYSNNPVLHCLNSALAQTAKALAGTRRDLRVLEVGAGTGATTRHLLPMLEEHLSEYRFTDVSNLFLTQAQEHFAAWPQLTCSMLDVNQPVDFSQHPAQGYDLVVAVNVMHDAAHVTRSLKRLHRLLRSGGHLLLLEATERDSALQLASIGFIEGLSNFEDERSEDDKAMLDLPRWRTAVQASGFSWVMNWPQQADDSM,not soluble
18,DDGDCKNIYRYSPKDGKFEKLNLETDVTSAFALSEYNPGIAAYIGQSDYNAGVAYLYDMKKKTSSLLADPMKPILEKIELGKTEPWNFTASDGTVITGKMCLPPNFDPNKKYPMIVYYYGGTTPTTRGISNPYCAQLFASRDYVVYVIQPSGTIGFGQEFSARHVNAWGKRTADDIIEGTKQFCKEHPFVDEKKIGCLGASYGGFMTQYLQTQTDIFAAAVSHAGISDVTSYWGEGYWGYSYNAIAAADSYPWKDPDLFTKQGSLFNADKINTPLLLLHGTVDTNVPIGESIQLFNALKILGKTVEFVTVDGENHFISDYDKRIKWHNSIMAWFARWLQ,not soluble
19,DEPNQPSTPEAVTKTVTIDASKYETWQYFSFSKGEVVNVTDYKNDLNWDMALHRYDVRLNCGESGKGKGGAVFSGKTEMDQATTVPTDGYTVDVLGRITVKYEMGPDGHQMEYEEQGFSEVITGKKNAQGFASGGWLEFSHGPAGPTYKLSKRVFFVRGADGNIAKVQFTDYQDAELKKGVITFTYTYPVK,soluble
20,DHLHVIGDIYDRGPAPDKIMDRLMSYHSLDIQLGNHDMIWLAAYSGSLACLANVVRICARYGNLDLLEERYAIDLTALKKFSLETYKENPAFAPKKNPYRALTEAEKQVAMRVQQAIAIIQEKLEGQIIGRRPDFNLAHRLRLDKIQGETITFDECRYTLINSCFQTVSEEQPYQLTREEKQIIDDLLTQFQSSPRLTKHMRFLMEKASLYLVYNQNLLIHGCLPLNADGTFQAYTFKGHSYSGKALVDFFQEMLEEAYAQPASTDDYATDCLWYLWCGEGSSLFGKRAMKTFERYFLAEKETHYEEKNPYYSLRDTVEVCERILDEFEVTGENRHIINGHTPVKRTKGESPIKANGTLLVIDGGFSKSYQTITGIAGYTLLYNS,not soluble
21,DIELTQTPVSLSASVGETVTITCRASENIYSYLAWYQQKQGKSPQFLVYNAKTLGEGVPSRFSGSGSGTQFSLKINSLLPEDFGSYYCQHHYGTPPLTFGGGTKLEIKREQKLISEEDLM,soluble
22,DIGCYTLGIQSGTVETTLCMGSSISIASGLYHAGEKRPICCSIGDSTFFHTGMNSLLNAVFNKANITVTILDNRITAMTGHQPNPGVGFTVTGEPTVEVSLAELCKAMGAGFVTVVDPYNLEETQEAFKAAKEFEGTAVVIAKQPCVISGKRAGI,not soluble
